# Measurements published in the RNAGym collection of RNA variant scans (doi:10.7554/elife.80360).
# B1: Hairpin Ribozyme (parent)
# chain: GUCCUCUUUCACGUGCGCGUGAAAGAGAGAAGUGAACCAGAGAAACACACGUUGUGGUAUAUUACCUGGUA
# Variants of: B1
# Assay: self-cleavage, relative activity (ratio to wild type); higher = more cleavage; co-transcriptional
row,Variant,self-cleavage
1,GUCCUCUUUCACGUGAGCGUGAAAGAGAGAAGUGAACCAGAGAAACACACGUUGUGGUAUAUUACCAGGUA [C16A U67A],0.246
2,GUCCUCUUUCACGUGAGCGUGAAAGAGAGAAGUGAACCAGAGAAACACACGUUGUGGUAUAUUACCCGGUA [C16A U67C],0.24
3,GUCCUCUUUCACGUGAGCGUGAAAGAGAGAAGUGAACCAGGGAAACACACGUUGUGGUAUAUUACCUGGUA [C16A A41G],0.818
4,GUCCUCUUUCACGUGAGCGUGAAAGAGAGAAGUGAACCAGUGAAACACACGUUGUGGUAUAUUACCUGGUA [C16A A41U],1.3
5,GUCCUCUUUCACGUGAGCGUGAAAGAGAGAAGUCAACCAGAGAAACACACGUUGUGGUAUAUUACCUGGUA [C16A G34C],1.44
6,GUCCUCUUUCACGUGAGCGUGAAAUAGAGAAGUGAACCAGAGAAACACACGUUGUGGUAUAUUACCUGGUA [C16A G25U],0.589
7,GUCCUCUUUCACGUGAGCGUGAAAGAGUGAAGUGAACCAGAGAAACACACGUUGUGGUAUAUUACCUGGUA [C16A A28U],0.611
8,GUCCUCUUUCACGUGAGCGUGAAAGAGAGAAGUGAACCAGAGAAACACACGUUGUGGUAUAUUACCUGGUU [C16A A71U],0.776
9,GUCCUCUUUCACGUGAGCGUGAAAGAGAGAAGUGAACCAGAGAAACGCACGUUGUGGUAUAUUACCUGGUA [C16A A47G],0.197
10,GUCCUCUUUCACGUGAGCGUGAAAGAGAGAAGUGAACCAGAGAAACACACGUUAUGGUAUAUUACCUGGUA [C16A G54A],0.388
11,GUCCUCUUUCACGUGAGCGUGAAAGAGAGCAGUGAACCAGAGAAACACACGUUGUGGUAUAUUACCUGGUA [C16A A30C],0.134
12,GUCCUCUUUCACGUGAGCGUGAAAGAGAGUAGUGAACCAGAGAAACACACGUUGUGGUAUAUUACCUGGUA [C16A A30U],0.154
13,GUCCUCUUUCACGUGAGCGUGAAAGAGAGAAGUGAACCAGAGAAUCACACGUUGUGGUAUAUUACCUGGUA [C16A A45U],0.176
14,GUCCUCUUUCACGUGAGCGUGAAAGAGAGAAGUGAACCAGAGAAACACACGUUGUGGUAUAUUUCCUGGUA [C16A A64U],0.14
15,GUCCUCUUUCACGUGAGCGUGAAAGAGAGAUGUGAACCAGAGAAACACACGUUGUGGUAUAUUACCUGGUA [C16A A31U],0.0142
16,GUCCUCUUUCACGUGAGCGUGAAAGAGAGAAGUGAACCAGAGAAACACACGUUGUGGUAUAUUACCUCGUA [C16A G68C],0.176
17,GUCCUCUUUCACGUGAGCGUGAAAGAGAGAAGUGAACCAGAGAAACACACGUUGUGGUAUAUUACCUUGUA [C16A G68U],0.181
18,GUCCUCUUUCACGUGAGCGUGAAAGAGAGAAGUGAACCAGAGAAACAUACGUUGUGGUAUAUUACCUGGUA [C16A C48U],0.0945
19,GUCCUCUUUCACGUGAGCGUGAAAGAGAGAAGUGAACCAGAGAAACACACGUUGUGGUAUAUUACCUGAUA [C16A G69A],0.308

row,Variant,self-cleavage
1,GUCCUCUUUCACGUGAGCGUGAAAGAGAGAAGUGAACCAGAGAAACACACGUUGUGCUAUAUUACCUGGUA [C16A G57C],0.127
2,GUCCUCUUUCACGUGAGAGUGAAAGAGAGAAGUGAACCAGAGAAACACACGUUGUGGUAUAUUACCUGGUA [C16A C18A],1.14
3,GUCCUCUUUCACGUGAGCGUGAAAGAGAGAAGUGAACCAGAGAAACACACGUUGUAGUAUAUUACCUGGUA [C16A G56A],0.0316
4,GUCCUCUUUCACGUGAGCGUGAAAGAGAGAAGUGAACCAGAGAAACACACGUUGUGGUAUUUUACCUGGUA [C16A A61U],0.226
5,GUCCUCUUUCACGUGAGCCUGAAAGAGAGAAGUGAACCAGAGAAACACACGUUGUGGUAUAUUACCUGGUA [C16A G19C],0.736
6,GUCCUCUUUCACGUGAGCGUGAAAGAGAGAAGUGAACCAGAGAAACACGCGUUGUGGUAUAUUACCUGGUA [C16A A49G],0.389
7,GUCCUCUUUCACGUGAGCGUGAAAGAGAGAAGUGAACCAGAGAAACACUCGUUGUGGUAUAUUACCUGGUA [C16A A49U],0.206
8,GUCCUCUUUCACGUGAGCGUGAAAGAGAGAAGCGAACCAGAGAAACACACGUUGUGGUAUAUUACCUGGUA [C16A U33C],0.2
9,GUCCUCUUUCACGUGAGCGUGAAAGAGAGAAGUGAACCAGAGAAACACACGUUGUGGUCUAUUACCUGGUA [C16A A59C],0.213
10,GUCCUCUUUCACGUGAGCGUGAAAGAGAGAAGUGUACCAGAGAAACACACGUUGUGGUAUAUUACCUGGUA [C16A A35U],0.789
11,GUCCUCUUUCACGUGAGCGUGAAAGAGAGAAGUGCACCAGAGAAACACACGUUGUGGUAUAUUACCUGGUA [C16A A35C],1.26
12,GUCCUCUUUCACGUGAGCGUGAAAGAGAGAAGUGAACCAGAGAAACACACGUUGUGGAAUAUUACCUGGUA [C16A U58A],0.597
13,GUCCUCUUUCACGUGAGCGUGAAAGAAAGAAGUGAACCAGAGAAACACACGUUGUGGUAUAUUACCUGGUA [C16A G27A],0.36
14,GUCCUCUUUCACGUGAGCGUGAAAGAGAGAAGUGAACCAGAUAAACACACGUUGUGGUAUAUUACCUGGUA [C16A G42U],0.276
15,GUCCUCUUUCACGUGAGCGUGAAAGAGAGAAGUGAACCAGAGAAACACACGUUGUGGUAUAUUAGCUGGUA [C16A C65G],0.255
16,GUCCUCUUUCACGUGAGCGUGAAAGAGAGAAGUGAACCAGAGAAACACACGUUGUGGUAUAUUAACUGGUA [C16A C65A],0.845
17,GUCCUCUUUCACGUGAGCGUGAAAGAGAGAAGUGAACCAGAGACACACACGUUGUGGUAUAUUACCUGGUA [C16A A44C],0.229
18,GUCCUCUUUCACGUGAGCGUGAAAGAGAGAAGUGAACUAGAGAAACACACGUUGUGGUAUAUUACCUGGUA [C16A C38U],0.577
19,GUCCUCUUUCACGUGAGCGUGAAAGAGAGAAGUGAACCAGAGAAACACACGUUGUGGUAUAUUACGUGGUA [C16A C66G],0.249
